Key:
hfVPACa = assay: cAMP accumulation (LANCE cAMP assay) in COS-7 cells transiently transfected with hfVPACa; assay type: cell-based, inshore hagfish (Eptatretus burgeri); conditions: 100 nM peptide, 30 min, at least 4 experiments in duplicates
Description: To investigate the functional properties of the proteins encoded by the agnathan VPAC receptor cDNAs, various vertebrate secretin superfamily peptides at a 100 nM concentration were employed to determine their abilities to stimulate cAMP production in transiently transfected COS-7 cells with hfVPACa or hfVPACb. As jlpVPAC was indicated to be orthologous to hfVPACa by phylogenetic analysis, only the hfVPAC receptors were tested (Figure 4). […] The hfVPACa was further studied using graded concentrations of VIP/PACAP peptides from various vertebrates including sea lamprey (Figure 4C and 4D).
Figure 4 Functional characterization of hfVPACa and hfVPACb. Intracellular cAMP accumulation in response to 100 nM vertebrate superfamily peptides on COS-7 cells transiently transfected with (A) hfVPACa and (B) hfVPACb. Peptide species: slp, sea lamprey; gf, goldfish; h, human; o, ovine; zf, zebrafish; x, Xenopus; ct, catfish and cp, carp. Data represent the mean ± S.E.M. of at least 4 experiments performed in duplicates, p<0.01 is denoted by “*”. […] Data are expressed as the mean ± S.E.M. of at least 6 experiments performed in duplicates. […] Data are expressed as the mean ± S.E.M. of at least 4 experiments. RFU, relative fluorescence units. (G) Shown are representative of confocal fluorescence images of CHO-K1 cells expressing (i) hfVPACa-pEYFP, (ii) hfVPACb-pEYFP and (iii) pEYFP-N1.
African green monkey kidney (COS-7) and Chinese hamster ovary (CHO-K1) cells (ATCC, Manassas, VA) were cultured in 10% FBS/100 U/ml Penicillin/[…] Streptomycin supplemented DMEM and MEM respectively in a 5% (v/v) CO2 humidified chamber at 37°C and passaged twice per week using Trypsin-EDTA (TE) (Invitrogen) on Nunc^TM Surface (Nunc, Denmark) tissue culture flasks. […] For cAMP assays, COS-7 cells were stimulated for 30 mins with either fixed ([…]) or varying (10^−6 to 10^−12 M) concentrations before taking measurements using the LANCE cAMP assay kit (Perkin-Elmer, Waltham, MA) in the Victor x4 multilabel reader (Perkin-Elmer) according to the manufacturer's protocol. […]

[1] = molecular target: inshore hagfish (Eptatretus burgeri) VPAC receptor a (inshore hagfish (Eptatretus burgeri))
[2] = molecular target: inshore hagfish (Eptatretus burgeri) VPAC receptor a (inshore hagfish (Eptatretus burgeri)); remark: listed apart in the source
[3] = molecular target: inshore hagfish (Eptatretus burgeri) VPAC receptor b (inshore hagfish (Eptatretus burgeri))

| Substance | ability to stimulate cAMP production at a fixed peptide concentration (hfVPACa) | intracellular cAMP accumulation (LANCE cAMP assay) in COS-7 cells transiently expressing hfVPACa, graded peptide concentrations 10^-6 to 10^-12 M, EC50 [1] [nM] | further results |
| --- | --- | --- | --- |
| GLP-1 | weakly or unable to do so |  |  |
| GLP-2 | weakly or unable to do so |  |  |
| glucagon: Glucagon (goldfish), synthetic peptide (HSEGTFSNDYSKYLETRRAQDFVEWLMNS; Glucagon; UniProt P79695 50-78, looked up) | weakly or unable to do so |  |  |
| human VIP (peptide) |  | 1.74 |  |
| ovine PACAP-27 (peptide) |  | 0.895 |  |
| sea lamprey PACAP-27 (peptide) |  | 5.92 | intracellular calcium elevation (Fluo-4 calcium assay) in CHO-K1 cells transiently expressing hfVPACa, graded peptide concentrations 10^-6 to 10^-12 M, EC50 [2]: 1.39 nM; intracellular calcium elevation (Fluo-4 calcium assay) in CHO-K1 cells transiently expressing hfVPACb, graded peptide concentrations 10^-6 to 10^-12 M, EC50 [3]: 27.8 nM |
